The record followed here is US20230151091A1 (NEW YORK UNIVERSITY, published 2023).

The target in assay [1] is T1, mECD: full-length extracellular region of mouse MuSK (E22 to T494) with C-terminal Avi- and His6-tags (mouse, UniProt Q61006 22-494, biotinylated in vitro using the BirA enzyme).
T1 construct: range 22-494; also called mouse ECD; not shown: Avi- and His6-tags
T1 sequence (looked up): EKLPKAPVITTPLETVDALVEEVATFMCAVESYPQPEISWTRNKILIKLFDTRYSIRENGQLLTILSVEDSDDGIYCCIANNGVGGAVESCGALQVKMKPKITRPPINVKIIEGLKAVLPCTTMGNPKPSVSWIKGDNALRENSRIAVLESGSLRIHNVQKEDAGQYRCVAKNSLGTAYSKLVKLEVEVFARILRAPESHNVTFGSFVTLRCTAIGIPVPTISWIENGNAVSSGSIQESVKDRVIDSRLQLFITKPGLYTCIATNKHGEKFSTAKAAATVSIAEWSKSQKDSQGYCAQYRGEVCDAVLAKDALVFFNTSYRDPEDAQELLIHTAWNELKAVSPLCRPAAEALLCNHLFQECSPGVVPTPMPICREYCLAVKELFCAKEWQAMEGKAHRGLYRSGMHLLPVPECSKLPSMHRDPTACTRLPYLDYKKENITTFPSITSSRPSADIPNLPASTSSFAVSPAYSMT
The assay can be described thus: bead-binding assay, Fab format: biotinylated antigen on streptavidin beads, flow cytometry, 1:1 fit; average ± s.d., n=3. (A flow cytometer gives signals particle by particle.)

For assay [2], the target named is T2, hFz: Fz domain and C-terminal flanking sequence of human MuSK (K314-T495) with C-terminal Avi- and His6-tags (human, UniProt O15146 314-495, biotinylated in vitro using the BirA enzyme).
T2 construct: also called human Fz; not shown: Avi- and His6-tags
T2 sequence: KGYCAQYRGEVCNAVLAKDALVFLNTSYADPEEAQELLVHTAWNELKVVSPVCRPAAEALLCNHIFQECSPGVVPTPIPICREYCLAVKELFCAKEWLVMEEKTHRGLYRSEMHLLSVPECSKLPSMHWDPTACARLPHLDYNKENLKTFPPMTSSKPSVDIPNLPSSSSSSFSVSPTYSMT
Described as above.

Assay [3] deals with T3, hECD: full-length extracellular region of human MuSK (E22 to T495) with C-terminal Avi- and His6-tags (human, UniProt O15146 22-495, biotinylated in vitro using the BirA enzyme).
T3 construct: also called human ECD; not shown: Avi- and His6-tags
T3 sequence: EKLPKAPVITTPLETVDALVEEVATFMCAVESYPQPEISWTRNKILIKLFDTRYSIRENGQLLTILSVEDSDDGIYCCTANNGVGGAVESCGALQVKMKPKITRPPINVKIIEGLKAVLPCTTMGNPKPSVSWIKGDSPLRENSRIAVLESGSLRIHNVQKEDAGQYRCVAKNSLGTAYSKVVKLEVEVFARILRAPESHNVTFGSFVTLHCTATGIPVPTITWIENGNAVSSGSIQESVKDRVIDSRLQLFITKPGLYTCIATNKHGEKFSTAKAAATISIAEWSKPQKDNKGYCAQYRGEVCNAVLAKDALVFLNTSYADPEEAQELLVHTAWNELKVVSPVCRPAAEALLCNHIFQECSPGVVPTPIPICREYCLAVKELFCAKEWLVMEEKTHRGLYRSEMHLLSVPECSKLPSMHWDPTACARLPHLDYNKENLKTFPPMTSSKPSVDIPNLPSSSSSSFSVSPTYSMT
Described as above.

For assay [4], the target named is T4, mFz: Fz domain and C-terminal flanking sequence of mouse MuSK (D307 to T494) with C-terminal Avi- and … (mouse, UniProt Q61006 307-494, limits assumed, biotinylated in vitro using the BirA enzyme).
T4 construct: also called mouse Fz; not shown: Avi- and His6-tags
T4 sequence (looked up): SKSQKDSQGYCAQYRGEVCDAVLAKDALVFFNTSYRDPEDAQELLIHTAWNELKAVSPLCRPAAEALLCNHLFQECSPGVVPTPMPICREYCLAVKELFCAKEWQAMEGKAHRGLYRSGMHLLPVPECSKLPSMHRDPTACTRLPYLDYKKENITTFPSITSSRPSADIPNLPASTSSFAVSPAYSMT
The description is as above.

The target in assay [5] is T1, mECD: full-length extracellular region …. The assay can be described thus: bead-binding titration, Fab format: antigen immobilized on streptavidin beads, MFI by flow cytometry, curve is the 1:1 fit.
For assay [6], the target named is T2, hFz: Fz domain and C-terminal flanking …. Described as above.
Assay [7] addresses T5, mouse MuSK (mouse, UniProt Q61006 22-494, limits assumed).
T5 construct: Coated on ELISA plates or on the Biacore chip; also called full length mouse MuSK; mouse MuSK (in house produced in HEK293 cells)
T5 sequence (looked up): T1 sequence (looked up)
The assay can be described thus: Biacore, MuSK on chip (200RU), mAb dilution series. The text has this: For affinity determination, a CMS chip was coated with either human or mouse MuSK (200RU) and a dilution series of the antibodies (mAbs and Fabs) was applied in order to be able to calculate the affinity.
A general note: Surface plasmon resonance follows binding to a sensor surface in real time, without labels.

Where a chain is given by its changes, count along the chain named. Numbers in names are those of the source.

B1: X2 Fab (Fab, V domains shown)
VH: EVQLVESGGGLVQPGGSLRLSCAASGFTVSSSSIHWVRQAPGKGLEWVASISSSYGSTSYADSVKGRFTISADTSKNTAYLQMNSLRAEDTAVYYCARSEGDRYVSGYMGMDYWGQGTLVTVSS
VL: DIQMTQSPSSLSASVGDRVTITCRASQSVSSAVAWYQQKPGKAPKLLIYSASSLYSGVPSRFSGSRSGTDFTLTISSLQPEDFATYYCQQSGVWLITFGQGTKVEIK
notes: Fab format
A word on the Kd: it is the constant that tells how readily two partners part at equilibrium. One may read the EC50 (read off the curve) as the concentration that produces a half-maximal response. For the molecule B1, the Kd in assay [1] was 0.7 nM; in assay [2] it was 0.53 nM; in assay [3], 0.86 nM; in assay [4], 0.45 nM. Besides, the “EC50 (read off the curve)” value was approximately 0.6 nM in assay [5] and approximately 0.5 nM in assay [6].

B2: X3 Fab (Fab, V domains shown)
VH: EVQLVESGGGLVQPGGSLRLSCAASGFTISSSSIHWVRQAPGKGLEWVASISSSSGYTYYADSVKGRFTISADTSKNTAYLQMNSLRAEDTAVYYCARSWYEMWMSGYFGFDYWGQGTLVTVSS
VL: B1 VL with G92S, V93S, W94S
notes: Fab format
B2: the Kd in assay [1] turned out to be 0.4 nM; in assay [2], 0.11 nM; in assay [3], 0.16 nM; in assay [4], 0.29 nM. For the same molecule, the “EC50 (read off the curve)” value was approximately 0.4 nM in assay [5] and approximately 0.1 nM in assay [6].

B3: 3B2 (antibody, V domains shown)
VH: ELQLVESGGGLVQPGGSLRLSCAASGFTFDDYGMSWVRQAPGKGLEWVSAIPWNGGSTYYKESVKGRFTISRDNAKKTLYLQMNSLKSEDTAVYYCAKRSGRIAFGALDAWGQGTLVTVSS
VL: QAVVTQEPSLSVSPGGTVTLTCGLSSGSVTSSNYPDWYQQTPGQAPRGLIYSTDSRHSGVPSRFSGSISGNKAALTITGAQSEDEADYYCGLYMYSGSKNYVFGGGTKLTVL
notes: human IgG1 with the LALA mutations (L234A, L235A); produced in HEK293 cells; also called 3B2 mAb; parental 3B2 Ab
In assay [7], B3 returned an equilibrium dissociation constant (Kd) of 0.134 nM.
